Assay results from patent US20190367633A1 (published 2019).
Where “and” joins values, the source holds several entries; their conditions need not be identical. Equal entries are not always repeated.

Legend:
[1] = target: human HER2 (Beijing Yiyi) (human, UniProt P04626 23-652); experiment: ELISA
[2] = target: T1, Recombinant human PD-1-Fc (human, UniProt Q15116 25-167); experiment: competition
[3] = target: T1, Recombinant human PD-1-Fc; experiment: competition ELISA; blocking PD-1/PD-L2
[4] = target: Recombinant human PD-1 (Beijing Yiqiao Shenzhou, Cat. No. 10377-H08H) (human, UniProt Q15116 25-167); experiment: ELISA
[5] = target: T1, Recombinant human PD-1-Fc; experiment: competition ELISA; blocking PD-1/PD-L1

Row | Binder | EC50 [1] | IC50 [2] | IC50 [3] | EC50 [4] | IC50 [5]
1 | PD-1 MONOCLONAL ANTIBODYpem (antibody, V domains shown) VH: QVQLVQSGVEVKKPGASVKVSCKASGYTFTNYYMYWVRQAPGQGLEWMGGINPSNGGTNFNEKFKNRVTLTTDSSTTTAYMELKSLQFDDTAVYYCARRDYRFDMGFDYWGQGTTVTVSS VL: EIVLTQSPATLSLSPGERATLSCRASKGVSTSGYSYLHWYQQKPGQAPRLLIYLASYLESGVPARFSGSGSGTDFTLTISSLEPEDFAVYYCQHSRDLPLTFGGGTKVEIK | > 20 nM | – | – | – | –
2 | anti-PD-1BJHM/anti-HER2 heterodimeric bispecific antibody (bispecific antibody) heavy 1: not shown light 1: DIVLTQSPATLSVTPGDSVSLSCRANQSISNNLHWYQQRSHESPRLLIRFASQSISGIPSRFSGSGSGTDFTLSINSVETEDFGMYFCQQSDNWPLTFGAGTKLEIKRTVAAPSVFIFPPSDEQLKSGTASVVCLLNNFYPREAKVQWKVDNALQSGNSQESVTEQDSKDSTYSLSSTLTLSKADYEKHKVYACEVTHQGLSSPVTKSFNRGEC heavy 2: not shown light 2: not shown | – | 2.06 nM and 1.95 nM | – | – | –

More lines, now with the values ahead:

Row | EC50 [1] | IC50 [2] | IC50 [3] | EC50 [4] | IC50 [5] | Binder
3 | – | 3.68 nM and 4.54 nM | – | – | – | anti-PD-1pem/anti-HER2 heterodimeric bispecific antibody (bispecific antibody) heavy 1: not shown light 1: EIVLTQSPATLSLSPGERATLSCRASKGVSTSGYSYLHWYQQKPGQAPRLLIYLASYLESGVPARFSGSGSGTDFTLTISSLEPEDFAVYYCQHSRDLPLTFGGGTKVEIKRTVAAPSVFIFPPSDEQLKSGTASVVCLLNNFYPREAKVQWKVDNALQSGNSQESVTEQDSKDSTYSLSSTLTLSKADYEKHKVYACEVTHQGLSSPVTKSFNRGEC heavy 2: not shown light 2: not shown
4 | > 20 nM | – | > 1.11 nM | > 0.08 nM | > 1.2 nM | PD-1 MONOCLONAL ANTIBODYBJHM (antibody, V domains shown) VH: EVQLQESGGGLVKPGGSLKLSCAASGFTFSSYGMSWVRQTPEKRLEWVASISGGGRYTYYPDSMKGRFTISRDNAKNNLHLQMSSLRSEDTALYYCVYEYFYTMDYWGQGTSVTVSS VL: DIVLTQSPATLSVTPGDSVSLSCRANQSISNNLHWYQQRSHESPRLLIRFASQSISGIPSRFSGSGSGTDFTLSINSVETEDFGMYFCQQSDNWPLTFGAGTKLEIK
